Patent US20010016194A1 (priority 1999, published 2001)
Entries after “also recorded” stand apart in the source; their conditions may differ.

Columns and labels:
[1] = target: T1, Raf-1 serine/threonine kinase (Homo sapiens, UniProt P04049); experiment: Serine/threonine kinase assay on T-cell proteins retained by FLAG-HMK-IL-2Rβ chain, with or without genistein, Histone H1 substrate; format: biochemical; conditions: genistein 10 μg/ml; T-cell proteins bound to IL-2Rβ chain
T1 construct: endogenous in cells; host or cells: human T-cell lysate (Raf-1); BL-21 pLysS bacteria (IL-2Rβ fusion)
T1 sequence (P04049 whole entry, the tested form may be a part): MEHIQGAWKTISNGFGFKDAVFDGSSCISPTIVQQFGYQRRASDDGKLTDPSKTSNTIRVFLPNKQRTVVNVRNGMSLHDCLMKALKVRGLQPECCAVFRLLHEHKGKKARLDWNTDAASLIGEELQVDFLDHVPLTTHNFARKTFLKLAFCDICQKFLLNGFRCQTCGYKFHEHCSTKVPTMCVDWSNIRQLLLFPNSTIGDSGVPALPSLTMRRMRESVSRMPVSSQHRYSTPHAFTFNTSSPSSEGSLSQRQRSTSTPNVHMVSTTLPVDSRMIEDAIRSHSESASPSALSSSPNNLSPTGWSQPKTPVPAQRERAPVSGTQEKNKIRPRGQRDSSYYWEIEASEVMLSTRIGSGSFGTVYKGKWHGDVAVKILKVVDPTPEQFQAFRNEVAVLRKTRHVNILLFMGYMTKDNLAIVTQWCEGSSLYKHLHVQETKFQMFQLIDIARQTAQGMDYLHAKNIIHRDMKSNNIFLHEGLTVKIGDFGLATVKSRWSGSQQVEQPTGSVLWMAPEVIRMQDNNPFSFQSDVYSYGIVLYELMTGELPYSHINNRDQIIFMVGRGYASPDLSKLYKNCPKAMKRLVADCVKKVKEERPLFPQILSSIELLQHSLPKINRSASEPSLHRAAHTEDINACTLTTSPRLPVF
Procedure: The kinase reaction was initiated by the addition of 1 μCi of […] and 25 μM ATP. After 30 min at 24° C., the reaction was stopped by addition of reducing SDS-PAGE sample buffer and boiling.
(ii) Kinase reaction performed in the presence of Histone-H-1. There is an increased, genistein (tyrosine kinase inhibitor)-independent phosphorylation of Histone-H-1 in T-cell lysates retained on affinity beads coated with FLAG-HMK-IL-2Rβ chain. Control affinity beads coated with proteins isolated from bacteria transformed with vector alone and exposed to T-cell lysates retain only background level of serine/threonine kinase activity. These experiments were repeated a number of times. The results of a representative experiment are shown in FIG. 5 which is a reproduction of an autoradiogram of the products of the kinase reaction performed, in the presence of Histone H-1, on anti-FLAG beads coated with the IL-2Rβ chain construct (WT) and exposed to T-cell lysates in the presence of genistein (lane 3), or in the absence of genistein (lane 2) and then subjected to SDS-PAGE and autoradiography. The control (lane 1) was carried out with the FLAG-HMK vector alone (no insert).

[2] = system: Raf-1 / IL-2Rβ chain; conditions: IL-2 stimulation; cited from earlier work
[3] = target: T2, Raf-1/14-3-3 binding to the IL-2Rb chain (Homo sapiens, UniProt P14784); experiment: COS cells co-transfected with IL-2Rβ chain and lck or fyn, immunoprecipitates probed for Raf-1 and 14-3-3; format: cell-based; conditions: co-transfection of COS cells, FIG. 10a
T2 construct: constructs encoding full-length or deletional mutants of the human IL-2Rβ chain; expressed in transfected cells; host or cells: COS cells, pRcCMV-IL-2Rβ, with or without lck or fyn
T2 sequence (P14784 27-551): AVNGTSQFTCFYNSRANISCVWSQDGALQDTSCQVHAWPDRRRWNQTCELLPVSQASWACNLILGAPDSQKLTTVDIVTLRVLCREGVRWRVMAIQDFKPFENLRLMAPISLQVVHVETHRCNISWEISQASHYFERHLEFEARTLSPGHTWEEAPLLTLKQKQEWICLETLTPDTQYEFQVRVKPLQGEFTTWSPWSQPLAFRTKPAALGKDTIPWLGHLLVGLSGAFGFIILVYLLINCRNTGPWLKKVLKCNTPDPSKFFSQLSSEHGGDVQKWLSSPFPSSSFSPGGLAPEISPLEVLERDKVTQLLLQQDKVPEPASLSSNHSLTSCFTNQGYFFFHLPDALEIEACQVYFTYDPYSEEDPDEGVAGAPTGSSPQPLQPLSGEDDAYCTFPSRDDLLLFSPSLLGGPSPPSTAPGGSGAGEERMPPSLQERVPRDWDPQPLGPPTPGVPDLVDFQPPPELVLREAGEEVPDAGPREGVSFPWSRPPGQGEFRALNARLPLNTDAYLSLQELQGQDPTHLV
Excerpt: In order to perform this examination, COS cells were transfected with IL-2Rβ chain alone, or co-transfected with lck or fyn, then […] with anti-IL-2Rβ chain antibody. The immunoprecipitates were then probed for the presence of Raf-1 and 14-3-3 proteins by immunoblotting (all procedures as detailed hereinabove).

[4] = target: T3, IL-2Rβ chain/Raf-1/14-3-3 complexes (Homo sapiens, UniProt P14784); experiment: Pre-formed IL-2Rβ chain/(His)6 Raf-1/bacterial 14-3-3 complexes exposed to catalytically active p56lck in vitro; format: biochemical; conditions: enzymatically active kinase, FIG. 10b
T3 construct: construction of plasmid FLAG-HMK-IL-2Rβ chain cytoplasmic domain wild type (FLAG-HMK-IL-2Rβ-WT); made in house; host or cells: bacterial lysates (BL-21 pLysS for the IL-2Rβ fusion, M15 for Raf-1)
T3 sequence (P14784 266-551 limits assumed): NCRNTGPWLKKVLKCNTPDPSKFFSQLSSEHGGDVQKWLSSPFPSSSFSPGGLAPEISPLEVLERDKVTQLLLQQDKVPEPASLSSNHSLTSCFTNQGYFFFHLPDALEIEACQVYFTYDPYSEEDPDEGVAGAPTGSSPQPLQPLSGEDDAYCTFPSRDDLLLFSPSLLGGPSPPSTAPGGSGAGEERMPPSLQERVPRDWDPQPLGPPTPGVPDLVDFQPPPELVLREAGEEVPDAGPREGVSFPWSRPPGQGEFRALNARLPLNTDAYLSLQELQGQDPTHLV
Procedure: The results of this examination are shown in FIG. 10a which is a reproduction of the above immunoblot. […] In addition, a study of the dissociation of pre-formed IL-2Rβ chain/Raf-1/14-3-3 complexes by enzymatically active p56^lck was also carried out. Pre-formed IL-2Rβ chain/(His)6 Raf-1/bacterial 14-3-3 complexes were prepared (see above in respect of FIGS. a-c), exposed to catalytically active p56^lck (Upstate Biotechnology), washed and eluted with FLAG peptide. Eluates were separated on SDS-PAGE and tested for the presence of Raf-1 proteins. The results of this study are shown in FIG. 10b which is a reproduction of an SDS-PAGE gel in which is depicted the Raf-1 bands. […] Since there is no indication that p56^lck interacts with Ras-like sequence of the IL-2Rβ chain, it seems that binding of Raf-1 and p56^lck to distinct subdomains of the same A-region, co-localize kinase and its substrate for fast enzymatic reaction occurring during IL-2R activation.

| effect on Raf-1/14-3-3 binding to the IL-2Rb chain [3] | dissociation of pre-formed IL-2Rβ chain/Raf-1/14-3-3 complexes [4] | Compound | effect of genistein on serine/threonine kinase activity (Histone H1 phosphorylation) [1] | dissociation of enzymatically active Raf-1 from the IL-2Rβ chain [2] |
| --- | --- | --- | --- | --- |
|  |  | O=c1c(-c2ccc(O)cc2)coc2cc(O)cc(O)c12 [genistein] | not inhibited; also recorded: independent | completely abolished |
| did not cause this dissociation |  | p59^fyn: another src-like kinase, co-transfected in COS cells |  |  |
| abrogation of Raf-1/14-3-3 binding | dissociation | p56^lck: src-family protein tyrosine kinase; catalytically active enzyme from Upstate Biotechnology or co-transfected in COS cells |  |  |
